Biological target: CTLA4 CD3 zeta on the 58 α-β-CTLA4 CD3 zeta expressing cell line (human)
Assay: cell-based or functional assay

CTLA4 CD3 zeta on the 58 α-β-CTLA4 CD3 zeta expressing cell line (human), sequence (P16410 36-161): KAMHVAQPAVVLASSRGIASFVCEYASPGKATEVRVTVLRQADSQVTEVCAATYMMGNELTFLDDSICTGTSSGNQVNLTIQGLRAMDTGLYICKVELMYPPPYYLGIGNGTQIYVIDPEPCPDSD

B1: ipilimumab (antibody, human IgG1, kappa, V domains shown)
VH: QVQLVESGGGVVQPGRSLRLSCAASGFTFSSYTMHWVRQAPGKGLEWVTFISYDGNNKYYADSVKGRFTISRDNSKNTLYLQMNSLRAEDTAIYYCARTGWLGPFDYWGQGTLVTVSS
VL: not shown
EC50 of NK92 cell-mediated specific lysis (calcein release) of 58 α-β-CTLA4 CD3 zeta cells: 0.13 ng/mL

B2: non-fucosylated ipilimumab (antibody, human IgG1, kappa, V domains shown)
VH: QVQLVESGGGVVQPGRSLRLSCAASGFTFSSYTMHWVRQAPGKGLEWVTFISYDGNNKYYADSVKGRFTISRDNSKNTLYLQMNSLRAEDTAIYYCARTGWLGPFDYWGQGTLVTVSS
VL: not shown
modifications: non-fucosylated (no fucose on the Asn297-linked oligosaccharide)
EC50 of NK92 cell-mediated specific lysis (calcein release) of 58 α-β-CTLA4 CD3 zeta cells: 0.0056 ng/mL

Source: US10196445 (Bristol-Myers Squibb, dated 2019)
